Assay results as given in paper PMC11229335, “The translocation activity of Rad54 reduces crossover outcomes during homologous recombination”.
Substitutions are numbered along the chain they refer to.

Experiments:
Test in all cases: EMSA; 3 mM MgCl2; 0-50 nM protein, 10 nM DNA; EMSA: 35 mM Tris-Cl pH 7.5, 3 mM MgCl2, 50 mM KCl, 1 mM DTT, 10% glycerol, 30 C, 5 min; curtains: 20 mM Tris-OAc pH 7.5, 50 mM NaCl, 10 mM MgOAc2, 200 ng/ul BSA, 1 mM DTT
Settings in all cases: protein: recombinant; label: 5'-Atto647N on strand 1; blunt
[1] = biological target: T1, Rad54 R272Q (Saccharomyces cerevisiae, UniProt P32863 1-898, R272Q)
T1 sequence: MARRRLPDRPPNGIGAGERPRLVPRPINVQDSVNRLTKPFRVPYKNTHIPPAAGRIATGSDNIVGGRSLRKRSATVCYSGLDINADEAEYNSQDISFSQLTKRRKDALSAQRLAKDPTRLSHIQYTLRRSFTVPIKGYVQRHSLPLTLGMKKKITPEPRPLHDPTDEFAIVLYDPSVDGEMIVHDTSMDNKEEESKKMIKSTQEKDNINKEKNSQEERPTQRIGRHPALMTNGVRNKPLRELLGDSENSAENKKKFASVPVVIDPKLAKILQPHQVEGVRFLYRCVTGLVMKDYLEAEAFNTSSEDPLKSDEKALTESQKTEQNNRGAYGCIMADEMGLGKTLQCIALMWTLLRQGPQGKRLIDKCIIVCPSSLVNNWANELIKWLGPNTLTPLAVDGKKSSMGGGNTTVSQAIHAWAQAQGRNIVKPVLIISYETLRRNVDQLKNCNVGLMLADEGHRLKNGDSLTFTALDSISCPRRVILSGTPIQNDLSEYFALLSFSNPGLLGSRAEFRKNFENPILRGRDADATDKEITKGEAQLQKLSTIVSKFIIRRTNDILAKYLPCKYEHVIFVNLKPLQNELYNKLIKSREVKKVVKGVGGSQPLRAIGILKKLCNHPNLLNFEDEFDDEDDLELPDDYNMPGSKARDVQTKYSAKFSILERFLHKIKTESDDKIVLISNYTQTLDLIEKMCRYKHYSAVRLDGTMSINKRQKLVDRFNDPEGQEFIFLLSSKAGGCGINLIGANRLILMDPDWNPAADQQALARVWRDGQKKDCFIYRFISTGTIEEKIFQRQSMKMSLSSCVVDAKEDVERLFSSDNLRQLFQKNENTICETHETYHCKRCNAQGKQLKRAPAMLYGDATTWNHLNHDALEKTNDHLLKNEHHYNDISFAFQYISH

[2] = biological target: T2, Rad54 (Saccharomyces cerevisiae, UniProt P32863 1-898)
T2 sequence: T1 sequence with Q272R

[3] = biological target: T3, Rad54 R272A (Saccharomyces cerevisiae, UniProt P32863 1-898, R272A)
T3 sequence: T1 sequence with Q272A

Measured: binding result

B1: 90-mer EMSA dsDNA (dsDNA)
DNA 1: TGTAAAACGACGGCCAGTGAATTCGAGCTCGGTACCCGGGGATCCTCTAGAGTCGACCTGCAGGCATGCAAGCTTGGCGTAATCATGGTC
DNA 2: GACCATGATTACGCCAAGCTTGCATGCCTGCAGGTCGACTCTAGAGGATCCCCGGGTACCGAGCTCGAATTCACTGGCCGTCGTTTTACA
binds: all assays above
